Target: EBV gB重组蛋白 (recombinant EB virus gB protein with C-terminal 6xHis tag) (EB病毒 (Epstein-Barr virus)) (UniProt P0C762)
Assay: BLI, biotinylated gB on SA biosensor, control antibody in solution

Substance: 对照抗体AMMO5 (anti-EBV gB recombinant antibody, clone AMMO5)
- Kd: 0.302 nM
